According to patent EP1708961B1 (Abbott Biotherapeutics Corp., dated 2011):
Several values for one entry are separate records, joined by “and”; a condition that tells them apart may be missing. Identical values can stand only once.

Experiments:
[1] = biological target: T1, recombinant human IP-10 (human, UniProt P02778 22-98); test: competition ELISA on coated human IP-10, competitor: biotinylated MuAIP12; Exp. C
T1 construct: Bought from R&D Systems; also called CXCL10; rhIP-10
T1 sequence: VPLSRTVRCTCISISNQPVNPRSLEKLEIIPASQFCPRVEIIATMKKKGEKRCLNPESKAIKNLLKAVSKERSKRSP

[2] = biological target: T1, recombinant human IP-10; test: competition ELISA on coated human IP-10, competitor: biotinylated MuAIP12; average
[3] = biological target: T1, recombinant human IP-10; test: competition ELISA on coated human IP-10, competitor: biotinylated MuAIP12; Exp. A
[4] = biological target: T1, recombinant human IP-10; test: Biacore (SPR)
[5] = biological target: T1, recombinant human IP-10; test: competition ELISA on coated human IP-10, competitor: biotinylated MuAIP12; Exp. D
[6] = biological target: T1, recombinant human IP-10; test: cell-based or functional assay
[7] = biological target: T1, recombinant human IP-10; test: competition ELISA on coated human IP-10, competitor: biotinylated MuAIP12; Exp. B
[8] = biological target: T1, recombinant human IP-10; test: competition ELISA on coated human IP-10, competitor: biotinylated MuAIP13; Exp. C
[9] = biological target: T1, recombinant human IP-10; test: competition ELISA on coated human IP-10, competitor: biotinylated MuAIP13; Exp. A
[10] = biological target: T1, recombinant human IP-10; test: competition ELISA on coated human IP-10, competitor: biotinylated MuAIP13; average
[11] = biological target: T1, recombinant human IP-10; test: competition ELISA on coated human IP-10, competitor: biotinylated MuAIP13; Exp. B
[12] = biological target: T1, recombinant human IP-10; test: competition ELISA on human IP-10, competitor: AIP13
[13] = biological target: T1, recombinant human IP-10; test: Biacore 2000 (SPR), antibody captured by goat anti-human IgG Fc, human IP-10 injected
[14] = biological target: T1, recombinant human IP-10; test: Biacore 2000 (SPR)
[15] = biological target: T1, recombinant human IP-10; test: competition ELISA on coated human IP-10; Exp. B
[16] = biological target: T1, recombinant human IP-10; test: competition ELISA on coated human IP-10; average
[17] = biological target: T1, recombinant human IP-10; test: cell-based or functional assay; remark: listed apart in the source
[18] = biological target: T1, recombinant human IP-10; test: competition ELISA on coated human IP-10; Exp. A
[19] = biological target: T1, recombinant human IP-10; test: competition ELISA on coated human IP-10; Exp. C
[20] = biological target: T1, recombinant human IP-10; test: competition ELISA on coated human IP-10; average; remark: listed apart in the source
[21] = biological target: T1, recombinant human IP-10; test: Biacore (Table 3)
[22] = biological target: T1, recombinant human IP-10; test: competition ELISA on coated human IP-10; Exp. C; remark: listed apart in the source
[23] = biological target: T1, recombinant human IP-10; test: competition ELISA on coated human IP-10; Exp. A; remark: listed apart in the source
[24] = biological target: T1, recombinant human IP-10; test: competition ELISA on coated human IP-10; Exp. D
[25] = biological target: T1, recombinant human IP-10; test: competition ELISA on coated human IP-10; Exp. B; remark: listed apart in the source

B1: murine monoclonal antibody AIP12 (antibody, V domains shown)
VH: QIQLVQSGPELKKPGETVKISCKASGYTFTDYSMHWVKQAPGKGLKWMGWINTETGEPTYADDFKGRFAFSLETSASTAYLQINNLKNEDTATYFCARNYDYDGYFDVWGAGTTVTVSS
VL: DIQMTQSPSSLSASLGGKVTITCKASQDINKYIAWYQHKPGKGPRLLIHYTSTLQPGIPSRFSGSGSGRDYSFSISNLEPEDIATYYCLQYDNLLFTFGSGTKLEIK
notes: Mouse hybridoma antibody; also called MuAIP12
IC50 [1]: 6.6 µg/mL
IC50 [2]: 5.4 µg/mL
IC50 [3]: 6.5 µg/mL
Kd [4]: 0.275 nM
koff [4]: 0.000282 s⁻¹
kon [4]: 1.05e+06 M⁻¹ s⁻¹
IC50 [5]: 4.2 µg/mL
inhibition of chemotaxis (IC50%) on recombinant IP-10, donor 215 [6]: 130 ng/mL
inhibition of chemotaxis (IC50%) on recombinant IP-10, donor 318 [6]: 41 ng/mL
inhibition of chemotaxis (IC50%) on recombinant IP-10, donor 1012 [6]: 91 ng/mL
inhibition of chemotaxis (IC50%) on recombinant IP-10, donor 1022 [6]: 135 ng/mL and 51 ng/mL and 86 ng/mL
inhibition of chemotaxis (IC50%) on recombinant IP-10, mean of donors [6]: 89 ng/mL
IC50 [7]: 4.4 µg/mL

B2: murine monoclonal antibody AIP13 (antibody, V domains shown)
VH: QIQLVQSGPELKKPGETVKISCKASGYTFTDYSMHWVKQAPGKGLKWMGWINTEIGEPTYADDFKGRFAFSLETSASTAYLQINNLKNEDTATYFCARNYDYDAYFDVWGAGTTVTVSS
VL: DIQMTQSPSSLSASLGGKVTITCKADQDINKYIAWYQHKPGRGPRLLLHHTSTLQPGIPSRFSGSGSGRDYSFSISNLEPADIATYYCLQYDSLLFTFGSGTKLEIK
notes: Mouse hybridoma antibody; Mouse IgG1/kappa was used as its isotype control; also called MuAIP13
IC50 [8]: 1.8 µg/mL
IC50 [9]: 2.1 µg/mL
Kd [4]: 1.24 nM
koff [4]: 0.000196 s⁻¹
kon [4]: 158000 M⁻¹ s⁻¹
inhibition of chemotaxis (IC50%) on recombinant IP-10, donor 215 [6]: 260 ng/mL
inhibition of chemotaxis (IC50%) on recombinant IP-10, donor 318 [6]: 139 ng/mL
inhibition of chemotaxis (IC50%) on recombinant IP-10, donor 1012 [6]: 84 ng/mL
inhibition of chemotaxis (IC50%) on recombinant IP-10, donor 1022 [6]: 229 ng/mL and 154 ng/mL and 78 ng/mL
inhibition of chemotaxis (IC50%) on recombinant IP-10, mean of donors [6]: 157 ng/mL
IC50 [10]: 2.1 µg/mL
IC50 [11]: 2.4 µg/mL

B3: HuAIP12 G104A variant antibody (antibody, human IgG1, V domains shown)
VH: EVQLVQSGAEVKKPGATVKISCKVSGYTFTDYSMHWVRQAPGKGLKWMGWINTETGEPTYADDFKGRFTFTLDTSTSTAYMELSSLRSEDTAVYYCARNYDYDAYFDVWGQGTTVTVSS
VL: DIQMTQSPSSLSASVGDRVTITCKASQDINKYIAWYQQKPGKAPKLLIHYTSTLQPGIPSRFSGSGSGRDYTFTISSLQPEDIATYYCLQYDNLLFTFGQGTKLEIK
notes: Human IgG1/kappa (gamma-1 and kappa expression vectors), transiently expressed in 293-H cells
IC50 [12]: 59.5 µg/mL
fold decrease in binding affinity against unmodified HuAIP12 [12]: 14.5 fold
Kd [13]: 5.98 nM
koff [13]: 0.000784 s⁻¹
kon [13]: 131000 M⁻¹ s⁻¹
fold faster off-rate (kd) against unmodified HuAIP12 [14]: ~2 fold
fold higher Kd against unmodified HuAIP12 [14]: > 20 fold
fold slower on-rate (ka) against unmodified HuAIP12 [14]: ~10 fold
fold weaker monovalent interaction against unmodified HuAIP12 [14]: 20 fold

B4: HuAIP12 T55I variant antibody (antibody, V domains shown)
VH: EVQLVQSGAEVKKPGATVKISCKVSGYTFTDYSMHWVRQAPGKGLKWMGWINTEIGEPTYADDFKGRFTFTLDTSTSTAYMELSSLRSEDTAVYYCARNYDYDGYFDVWGQGTTVTVSS
VL: DIQMTQSPSSLSASVGDRVTITCKASQDINKYIAWYQQKPGKAPKLLIHYTSTLQPGIPSRFSGSGSGRDYTFTISSLQPEDIATYYCLQYDNLLFTFGQGTKLEIK
IC50 [12]: 1.6 µg/mL
Kd [13]: 0.0269 nM
koff [13]: 4.67e-05 s⁻¹
kon [13]: 1.66e+06 M⁻¹ s⁻¹
fold slower off-rate against unmodified HuAIP12 [14]: ~9 fold
fold stronger affinity against unmodified HuAIP12 [14]: > 9 fold

B5: humanized monoclonal antibody HuAIP13 (antibody, human IgG1, V domains shown)
VH: EVQLVQSGAEVKKPGATVKISCKVSGYTFTDYSMHWVRQAPGKGLKWMGWINTEIGEPTYADDFKGRFTFTLDTSTSTAYMELSSLRSEDTAVYYCARNYDYDAYFDVWGQGTTVTVSS
VL: DIQMTQSPSSLSASVGDRVTITCKADQDINKYIAWYQQKPGKAPKLLLHHTSTLQPGIPSRFSGSGSGRDYTFTISSLQPEDIATYYCLQYDSLLFTFGQGTKLEIK
notes: Human IgG1/kappa
fold difference of IC50 against MuAIP13 [15]: 2.7 fold
IC50 [8]: 4.8 µg/mL
IC50 [9]: 6.1 µg/mL
IC50 [12]: 9.2 µg/mL
fold difference of IC50 against MuAIP13 [16]: 2.8 fold
IC50 of inhibition of IP-10 mediated chemotaxis [17]: ~100 ng/mL
fold difference of IC50 against MuAIP13 [18]: 2.9 fold
Kd [4]: 1.24 nM
koff [4]: 0.000194 s⁻¹
kon [4]: 156000 M⁻¹ s⁻¹
fold difference of IC50 against MuAIP13 [19]: 2.7 fold
inhibition of chemotaxis (IC50%) on recombinant IP-10, donor 215 [6]: 139 ng/mL
inhibition of chemotaxis (IC50%) on recombinant IP-10, donor 318 [6]: 45 ng/mL
inhibition of chemotaxis (IC50%) on recombinant IP-10, donor 1012 [6]: 77 ng/mL
inhibition of chemotaxis (IC50%) on recombinant IP-10, mean of donors [6]: 86 ng/mL
IC50 [10]: 5.8 µg/mL
IC50 [11]: 6.5 µg/mL

B6: humanized monoclonal antibody HuAIP12 (antibody, human IgG1, V domains shown)
VH: EVQLVQSGAEVKKPGATVKISCKVSGYTFTDYSMHWVRQAPGKGLKWMGWINTETGEPTYADDFKGRFTFTLDTSTSTAYMELSSLRSEDTAVYYCARNYDYDGYFDVWGQGTTVTVSS
VL: DIQMTQSPSSLSASVGDRVTITCKASQDINKYIAWYQQKPGKAPKLLIHYTSTLQPGIPSRFSGSGSGRDYTFTISSLQPEDIATYYCLQYDNLLFTFGQGTKLEIK
notes: Human IgG1/kappa; also called unmodified HuAIP12; Wild Type
fold difference of IC50 against MuAIP12 [20]: 2.5 fold
IC50 [1]: 14.5 µg/mL
IC50 [12]: 3.1 µg/mL and 4.1 µg/mL
IC50 [2]: 13.5 µg/mL
Kd [13]: 0.251 nM
koff [13]: 0.000381 s⁻¹
kon [13]: 1.55e+06 M⁻¹ s⁻¹
IC50 [3]: 18.6 µg/mL
IC50 of inhibition of IP-10 mediated chemotaxis [17]: ~100 ng/mL
fold higher binding affinity than HuAIP13 [21]: ~2.6 fold
Kd [4]: 0.472 nM
koff [4]: 0.000357 s⁻¹
kon [4]: 755000 M⁻¹ s⁻¹
IC50 [5]: 10.3 µg/mL
fold difference of IC50 against MuAIP12 [22]: 2.2 fold
inhibition of chemotaxis (IC50%) on recombinant IP-10, donor 215 [6]: 142 ng/mL
inhibition of chemotaxis (IC50%) on recombinant IP-10, donor 318 [6]: 38 ng/mL
inhibition of chemotaxis (IC50%) on recombinant IP-10, donor 1012 [6]: 73 ng/mL
inhibition of chemotaxis (IC50%) on recombinant IP-10, mean of donors [6]: 86 ng/mL
fold difference of IC50 against MuAIP12 [23]: 2.9 fold
IC50 [7]: 10.7 µg/mL
fold difference of IC50 against MuAIP12 [24]: 2.4 fold
fold difference of IC50 against MuAIP12 [25]: 2.4 fold

B7: 12H+13L antibody (antibody, V domains shown)
VH: EVQLVQSGAEVKKPGATVKISCKVSGYTFTDYSMHWVRQAPGKGLKWMGWINTETGEPTYADDFKGRFTFTLDTSTSTAYMELSSLRSEDTAVYYCARNYDYDGYFDVWGQGTTVTVSS
VL: DIQMTQSPSSLSASVGDRVTITCKADQDINKYIAWYQQKPGKAPKLLLHHTSTLQPGIPSRFSGSGSGRDYTFTISSLQPEDIATYYCLQYDSLLFTFGQGTKLEIK
notes: HuAIP12 heavy chain with HuAIP13 light chain; human gamma-1/kappa
IC50 [12]: 3 µg/mL

B8: 13H+12L antibody (antibody, V domains shown)
VH: EVQLVQSGAEVKKPGATVKISCKVSGYTFTDYSMHWVRQAPGKGLKWMGWINTEIGEPTYADDFKGRFTFTLDTSTSTAYMELSSLRSEDTAVYYCARNYDYDAYFDVWGQGTTVTVSS
VL: DIQMTQSPSSLSASVGDRVTITCKASQDINKYIAWYQQKPGKAPKLLIHYTSTLQPGIPSRFSGSGSGRDYTFTISSLQPEDIATYYCLQYDNLLFTFGQGTKLEIK
notes: HuAIP13 heavy chain with HuAIP12 light chain; human gamma-1/kappa
IC50 [12]: 13.6 µg/mL
